Reference: IntAct's records for PubMed 16299177

B1: ABSCISIC ACID-… 5-like protein 7 (Arabidopsis thaliana (Mouse-ear cress)), Q9M7Q2 (parent)
chain: MGTHINFNNLGGGGHPGGEGSSNQMKPTGSVMPLARQSSVYSLTFDELQNTLGGPGKDFGSMNMDELLKSIWTAEEAQAMAMTSAPAATAVAQPGAGIPPPGGNLQRQGSLTLPRTISQKTVDEVWKCLITKDGNMEGSSGGGGESNVPPGRQQTLGEMTLEEFLFRAGVVREDNCVQQMGQVNGNNNNGFYGNSTAAGGLGFGFGQPNQNSITFNGTNDSMILNQPPGLGLKMGGTMQQQQQQQQLLQQQQQQMQQLNQPHPQQRLPQTIFPKQANVAFSAPVNITNKGFAGAANNSINNNNGLASYGGTGVTVAATSPGTSSAENNSLSPVPYVLNRGRRSNTGLEKVIERRQRRMIKNRESAARSRARKQAYTLELEAEIEKLKKTNQELQKKQAEMVEMQKNELKETSKRPWGSKRQCLRRTLTGPW
partner: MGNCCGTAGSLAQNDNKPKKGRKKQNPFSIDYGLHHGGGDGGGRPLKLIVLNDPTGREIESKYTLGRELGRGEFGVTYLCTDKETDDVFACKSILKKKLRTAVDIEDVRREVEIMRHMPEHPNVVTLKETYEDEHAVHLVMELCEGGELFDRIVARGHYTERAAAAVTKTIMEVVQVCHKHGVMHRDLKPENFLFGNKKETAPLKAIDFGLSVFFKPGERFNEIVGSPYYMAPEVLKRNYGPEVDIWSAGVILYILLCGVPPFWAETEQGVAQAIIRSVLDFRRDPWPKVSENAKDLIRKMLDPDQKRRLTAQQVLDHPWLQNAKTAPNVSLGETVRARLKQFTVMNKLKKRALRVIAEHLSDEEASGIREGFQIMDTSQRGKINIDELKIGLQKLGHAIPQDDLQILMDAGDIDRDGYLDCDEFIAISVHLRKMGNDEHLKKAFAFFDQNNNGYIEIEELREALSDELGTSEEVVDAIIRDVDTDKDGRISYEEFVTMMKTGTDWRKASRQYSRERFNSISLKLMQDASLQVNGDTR

Variants of: B1
Settings: with cdpkw_arath CPK32, Q6NLQ6
With MGTHINFNNLGGGGHPGGEGSSNQMKPTGSVMPLARQSSVYSLTFDELQNTLGGPGKDFGSMNMDELLKSIWTAEEAQAMAMTSAPAATAVAQPGAGIPPPGGNLQRQGALTLPRTISQKTVDEVWKCLITKDGNMEGSSGGGGESNVPPGRQQTLGEMTLEEFLFRAGVVREDNCVQQMGQVNGNNNNGFYGNSTAAGGLGFGFGQPNQNSITFNGTNDSMILNQPPGLGLKMGGTMQQQQQQQQLLQQQQQQMQQLNQPHPQQRLPQTIFPKQANVAFSAPVNITNKGFAGAANNSINNNNGLASYGGTGVTVAATSPGTSSAENNSLSPVPYVLNRGRRSNTGLEKVIERRQRRMIKNRESAARSRARKQAYTLELEAEIEKLKKTNQELQKKQAEMVEMQKNELKETSKRPWGSKRQCLRRTLTGPW [S110A] the “effect of a mutation on the interaction” value was “disrupting interaction”.

Variants of: B1
Settings: with cdpkw_arath CPK32, Q6NLQ6
Remark: another data set of the same source
MGTHINFNNLGGGGHPGGEGSSNQMKPTGSVMPLARQSSVYSLTFDELQNTLGGPGKDFGSMNMDELLKSIWTAEEAQAMAMTSAPAATAVAQPGAGIPPPGGNLQRQGALTLPRTISQKTVDEVWKCLITKDGNMEGSSGGGGESNVPPGRQQTLGEMTLEEFLFRAGVVREDNCVQQMGQVNGNNNNGFYGNSTAAGGLGFGFGQPNQNSITFNGTNDSMILNQPPGLGLKMGGTMQQQQQQQQLLQQQQQQMQQLNQPHPQQRLPQTIFPKQANVAFSAPVNITNKGFAGAANNSINNNNGLASYGGTGVTVAATSPGTSSAENNSLSPVPYVLNRGRRSNTGLEKVIERRQRRMIKNRESAARSRARKQAYTLELEAEIEKLKKTNQELQKKQAEMVEMQKNELKETSKRPWGSKRQCLRRTLTGPW [S110A] was tested, and the “effect of a mutation on the interaction” value was “decreasing interaction”.
